# Earlier results in US5474978A, “Insulin analog formulations” (Eli Lilly and Company, priority 1994, dated 1995).
# Conditions: compared with Zn-insulin
row,Substance,Zn-induced association
1,Ala^B28 Pro^B29 -hI,little or no Zn-induced association
2,Ala^B28 insulin,"demonstrate Zn-induced association, but less than Zn-insulin"
3,Asp^B28 Pro^B29 -hI,little or no Zn-induced association
4,Asp^B28 insulin,"demonstrate Zn-induced association, but less than Zn-insulin"
5,Lys^B28 insulin,"demonstrate Zn-induced association, but less than Zn-insulin"
6,Pro^B29 insulin,"demonstrate Zn-induced association, but less than Zn-insulin"
